Among the data in PMC4926069 are IC50 of inhibition of ACE activity (HHL as substrate, hippuric acid measured by RP-HPLC; 0.25–100 μM peptide, four-parameter logistic fit) values, retold here.

The target of the assay is Angiotensin I-converting enzyme (ACE, EC 3.4.15.1, from rabbit lung) (rabbit) (UniProt P12822).
Sequence of UniProt P12822 (P12822 34-1310): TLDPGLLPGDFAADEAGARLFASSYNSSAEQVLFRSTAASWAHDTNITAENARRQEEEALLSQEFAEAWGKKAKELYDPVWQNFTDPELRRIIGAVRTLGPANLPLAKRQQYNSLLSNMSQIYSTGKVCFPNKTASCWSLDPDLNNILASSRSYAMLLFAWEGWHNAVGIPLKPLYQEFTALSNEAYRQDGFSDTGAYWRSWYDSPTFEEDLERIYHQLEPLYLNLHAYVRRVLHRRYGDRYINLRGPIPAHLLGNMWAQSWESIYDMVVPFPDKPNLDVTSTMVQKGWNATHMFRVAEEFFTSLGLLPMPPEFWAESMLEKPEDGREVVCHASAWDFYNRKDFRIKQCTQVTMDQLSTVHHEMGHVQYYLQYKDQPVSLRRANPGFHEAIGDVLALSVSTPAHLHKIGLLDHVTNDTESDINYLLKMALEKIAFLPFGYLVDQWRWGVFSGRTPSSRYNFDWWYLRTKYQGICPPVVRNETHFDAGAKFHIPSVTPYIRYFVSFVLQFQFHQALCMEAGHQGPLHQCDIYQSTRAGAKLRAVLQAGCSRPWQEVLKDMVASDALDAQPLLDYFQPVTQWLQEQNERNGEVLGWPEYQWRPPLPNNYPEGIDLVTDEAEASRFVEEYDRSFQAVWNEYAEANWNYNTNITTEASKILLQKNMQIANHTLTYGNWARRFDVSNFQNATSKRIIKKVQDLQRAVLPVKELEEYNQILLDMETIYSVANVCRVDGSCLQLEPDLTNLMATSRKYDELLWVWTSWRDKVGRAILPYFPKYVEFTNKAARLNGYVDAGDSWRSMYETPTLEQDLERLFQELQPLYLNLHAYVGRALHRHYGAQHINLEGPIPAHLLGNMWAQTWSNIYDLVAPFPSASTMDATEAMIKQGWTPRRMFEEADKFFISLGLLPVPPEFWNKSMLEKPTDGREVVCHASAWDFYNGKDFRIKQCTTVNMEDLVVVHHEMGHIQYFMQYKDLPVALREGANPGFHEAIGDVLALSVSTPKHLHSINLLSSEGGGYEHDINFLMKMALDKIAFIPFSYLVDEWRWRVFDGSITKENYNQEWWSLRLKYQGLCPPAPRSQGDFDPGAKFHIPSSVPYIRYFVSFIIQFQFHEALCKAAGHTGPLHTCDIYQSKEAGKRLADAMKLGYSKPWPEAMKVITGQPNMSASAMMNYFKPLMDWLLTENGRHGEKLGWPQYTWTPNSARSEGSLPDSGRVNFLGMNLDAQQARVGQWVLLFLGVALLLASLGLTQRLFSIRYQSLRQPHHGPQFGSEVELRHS

Consider Val-Gln-Tyr (VQY) (peptide), for which the IC50 of inhibition of ACE activity (HHL as substrate, hippuric acid measured by RP-HPLC; 0.25–100 μM peptide, four-parameter logistic fit) is 9.8 μM.
